{"source": "paper PMC11960969", "about": "“Mdga2 deficiency leads to an aberrant activation of BDNF/TrkB signaling that underlies autism-relevant synaptic and behavioral changes in mice” (PLOS Biology, 2025)", "molecules": {"B1": {"name": "MDGA2-ΔMAM: truncated form of MDGA2 lacking its MAM domain (protein)", "chain": "PPTVRIVHSGLACNIEEERYSERVYTIREGETLELTCLVTGHPRPQIRWTKTAGSASDRFQDSSVFNETLRITNIQRHQGGRYYCKAENGLGSPAIKSIRVDVYYLDDPVVTVHQSIGEAKEQFYYERTVFLRCVANSNPPVRYSWRRGQEVLLQGSDKGVEIYEPFFTQGETKILKLKNLRPQDYANYSCIASVRNVCNIPDKMVSFRLSNKTASPSIKLLVDDPIVVNPGEAITLVCVTTGGEPAPSLTWVRSFGTLPEKTVLNGGTLTIPAITSDDAGTYSCIANNNVGNPAKKSTNIIVRALKKGRFWITPDPYHKDDNIQIGREVKISCQVEAVPSEELTFSWFKNGRPLRSSERMVITQTDPDVSPGTTNLDIIDLKFTDFGTYTCVASLKGGGISDISIDVNISSSTVPPNLTVPQEKSPLVTREGDTIELQCQVTGKPKPIILWSRADKEVAMPDGSMQMESYDGTLRIVNVSREMSGMYRCQTSQYNGFNVKPREALVQLIVQYPPAVEPAFLEIRQGQDRSVTMSCRVLRAYPIRVLTYEWRLGNKLLRTGQFDSQEYTEYAVKSLSNENYGVYNCSIINEAGAGRCSFLVTGKAYAPEFYYDTYNPVWQNRHRVYSYSLQWTQMNPDAVDRIVAYRLGIRQAGQQRWWEQEIKINGNIQKGELITYNLTELIKPEAYEVRLTPLTKFGEGDSTIRVIKYSAPVNPHLREQDLATKNSVD", "modifications": "left off: GFP, end not stated, kept", "notes": "truncated form of MDGA2 lacking its MAM domain"}}, "key": {"BDNF-TrkB interaction": {"system": "BDNF-TrkB interaction", "test": "BDNF-TrkB Co-IP (anti-BDNF or anti-TrkB) in primary neurons / brain of Het, KO, WT and in WT neurons transfected with MDGA2 or ΔMAM", "format": "cell-based, mouse", "conditions": "IP anti-BDNF, Fig 3I", "method": "Fig 3 MDGA2 interacts with TrkB and suppresses TrkB activity. (A) Primary hippocampal neurons derived from Mdga2^ +/− (Het) mice and their wild-type (WT) littermates at DIV 7 were treated with different doses of BDNF for 30 min. Equal amounts of protein lysates were subjected to immunoprecipitation (IP) with an anti-TrkB antibody, followed by immunoblotting with an anti-phosphotyrosine (pTyr) antibody or the anti-TrkB antibody. The pTyr levels were quantified by densitometry, normalized to total TrkB levels, and then compared to those of WT controls. n = 3 per group. (B) WT mouse brain lysates were subjected to IP with an anti-MDGA2 antibody and a control IgG, and immunoblotted (IB) for the components indicated. mBDNF, mature BDNF; ImBDNF, immature BDNF. […] Immunoprecipitated TrkB levels were quantified by densitometry, normalized to input levels, and compared to respective controls (set to one arbitrary units). n = 3 per group. […] Levels of phosphorylated proteins were quantified by densitometry, normalized to respective total protein levels and compared to controls (set to one arbitrary units). n = 6 per group. […] P-values were determined by two-tailed unpaired Student t-test in (A) and one-way ANOVA with Tukey’s multiple comparisons test in (H, I, J). *p < 0.05, **p < 0.01, ***p < 0.001, ns: not significant. […]"}, "[1]": {"system": "TrkB signaling (pTrkB, pAkt, pmTOR)", "test": "Immunoblotting of TrkB/Akt/mTOR phosphorylation in primary neurons transfected with MDGA2, ΔMAM or V930I", "format": "cell-based, mouse", "conditions": "for pAkt level normalized to total protein / pTrkB level normalized to total protein / pmTOR level normalized to total protein: KO neurons transfected, WT/Ctrl set to one", "method": "Fig 3 MDGA2 interacts with TrkB and suppresses TrkB activity. (A) Primary hippocampal neurons derived from Mdga2^ +/− (Het) mice and their wild-type (WT) littermates at DIV 7 were treated with different doses of BDNF for 30 min. Equal amounts of protein lysates were subjected to immunoprecipitation (IP) with an anti-TrkB antibody, followed by immunoblotting with an anti-phosphotyrosine (pTyr) antibody or the anti-TrkB antibody. The pTyr levels were quantified by densitometry, normalized to total TrkB levels, and then compared to those of WT controls. n = 3 per group. (B) WT mouse brain lysates were subjected to IP with an anti-MDGA2 antibody and a control IgG, and immunoblotted (IB) for the components indicated. mBDNF, mature BDNF; ImBDNF, immature BDNF. (C) Hippocampal neurons from WT mice at DIV 7 were immunostained with antibodies against MDGA2 (red) and TrkB (green), and then counter-stained with DAPI (blue). Images were acquired by a confocal microscope. Scale bar: 10 μm. (D) Surface plasmon resonance (SPR) analysis of the binding between recombinant MDGA2 protein and recombinant TrkB protein. TrkB was immobilized on a Biacore CM5 chip and tested for its binding with MDGA2 at the concentrations indicated. (E) Computer simulation of the binding mode of TrkB and MDGA2. The predicted binding domain of TrkB (the d5 domain) is highlighted by a red square and labeled in brown. The predicted binding domain of MDGA2 (the MAM domain) is highlighted by a red square and labeled in yellow. (F) HEK293T cells were co-transfected with TrkB-Flag and GFP-tagged full-length MDGA2 (MDGA2-GFP) or an MDGA2 deletion fragment lacking the entire MAM domain (ΔMAM-GFP). Cell lysates were subjected to IP with control IgG and antibodies against Flag or GFP, and immunoblotted for the components indicated. […] The scheme of MDGA2-ΔMAM is also shown. (G) HeLa cells were co-transfected with TrkB that is tagged with the N-terminal Venus fragment (TrkB-VN) and full-length MDGA2 or MDGA2-ΔMAM that are tagged with the C-terminal Venus fragment (MDGA2-VC or ΔMAM-VC) for 24 h. After immunostaining with antibodies against MDGA2/MDGA2-ΔMAM (pink) and TrkB (red), cells were observed by confocal microscopy. Venus signal (green) indicates the interaction between MDGA2 and TrkB. Schematic diagrams depicting the BiFC assay are also shown. Scale bars: 10 μm. (H, I) Equal amounts of protein lysates from primary neurons derived from Het, KO, and their WT littermate mice (H), and from WT primary neurons transfected with GFP control, MDGA2-GFP or ΔMAM-GFP (I) were subjected to IP with IgG and an anti-BDNF antibody, and then immunoblotted for the components indicated. Immunoprecipitated TrkB levels were quantified by densitometry, normalized to input levels, and compared to respective controls (set to one arbitrary units). n = 3 per group. (J) Neurons derived from KO mice were transfected with GFP control (Ctrl), MDGA2-GFP, or MDGA2-ΔMAM-GFP, and neurons derived from their WT littermates were transfected with GFP control (Ctrl). Equal amounts of protein lysates were subjected to immunoblotting for the proteins indicated. Levels of phosphorylated proteins were quantified by densitometry, normalized to respective total protein levels and compared to controls (set to one arbitrary units). n = 6 per group. Data represent mean ± SEM. P-values were determined by two-tailed unpaired Student t-test in (A) and one-way ANOVA with Tukey’s multiple comparisons test in (H, I, J). *p < 0.05, **p < 0.01, ***p < 0.001, ns: not significant. The data underlying this figure can be found in S1 Data, specifically in the sheet labeled “Figure 3”.\nFig 7 The autism spectrum disorder (ASD)-associated MDGA2 V930I mutation impairs the MDGA2-TrkB interaction and MDGA2’s inhibitory effect on the tyrosine kinase B (TrkB) signaling. (A) Schematic depiction of the WT human MDGA2 and its V930I mutation constructs that are tagged with GFP. […]"}}, "data": [{"molecule": "B1", "values": [{"measurement": "interaction between BDNF and TrkB upon overexpression", "setting": "BDNF-TrkB interaction", "value": "not MDGA2-ΔMAM"}, {"measurement": "pAkt level normalized to total protein", "setting": "[1]; replicate 1", "value": 2.92, "unit": "arbitrary units"}, {"measurement": "pTrkB level normalized to total protein", "setting": "[1]; replicate 1", "value": 2.14, "unit": "arbitrary units"}, {"measurement": "pmTOR level normalized to total protein", "setting": "[1]; replicate 1", "value": 3.01, "unit": "arbitrary units"}, {"measurement": "pAkt level normalized to total protein", "setting": "[1]; replicate 2", "value": 2.51, "unit": "arbitrary units"}, {"measurement": "pTrkB level normalized to total protein", "setting": "[1]; replicate 2", "value": 2.17, "unit": "arbitrary units"}, {"measurement": "pmTOR level normalized to total protein", "setting": "[1]; replicate 2", "value": 2.5, "unit": "arbitrary units"}, {"measurement": "pAkt level normalized to total protein", "setting": "[1]; replicate 3", "value": 2.41, "unit": "arbitrary units"}, {"measurement": "pTrkB level normalized to total protein", "setting": "[1]; replicate 3", "value": 2.23, "unit": "arbitrary units"}, {"measurement": "pmTOR level normalized to total protein", "setting": "[1]; replicate 3", "value": 2.06, "unit": "arbitrary units"}, {"measurement": "pAkt level normalized to total protein", "setting": "[1]; replicate 4", "value": 2.21, "unit": "arbitrary units"}, {"measurement": "pTrkB level normalized to total protein", "setting": "[1]; replicate 4", "value": 2.41, "unit": "arbitrary units"}, {"measurement": "pmTOR level normalized to total protein", "setting": "[1]; replicate 4", "value": 1.59, "unit": "arbitrary units"}, {"measurement": "pAkt level normalized to total protein", "setting": "[1]; replicate 5", "value": 1.76, "unit": "arbitrary units"}, {"measurement": "pTrkB level normalized to total protein", "setting": "[1]; replicate 5", "value": 2.01, "unit": "arbitrary units"}, {"measurement": "pmTOR level normalized to total protein", "setting": "[1]; replicate 5", "value": 1.49, "unit": "arbitrary units"}, {"measurement": "pAkt level normalized to total protein", "setting": "[1]; replicate 6", "value": 1.68, "unit": "arbitrary units"}, {"measurement": "pTrkB level normalized to total protein", "setting": "[1]; replicate 6", "value": 1.69, "unit": "arbitrary units"}, {"measurement": "pmTOR level normalized to total protein", "setting": "[1]; replicate 6", "value": 1.31, "unit": "arbitrary units"}, {"measurement": "overactivation of TrkB signaling (pTrkB, pAkt, pmTOR) upon expression", "setting": "[1]; Mdga2-/- neurons, Fig 3J, n = 6", "value": "not MDGA2-ΔMAM"}]}]}
